Like-named read-outs stand apart in the source and are kept apart here.
B1: notecarin from Notechis scutatus venom (protein)
chain: SNSLFEEIRPGNIERECIEEKCSKEEAREVFEDNEKTETFWNVYVDGDQCSSNPCHYRGTCKDGIGSYTCTCLPNYEGKNCEKVLFKSCRAFNGNCWHFCKRVQSETQCSCAESYLLGVDGHSCVAEGDFSCGRNIKARNKREASLPDFVQSQKATVLKKSDNPSPDIRIVNGMDCKLGECPWQAVLINEKGEVFCGGTILSPIHVLTAAHCINQTKSVSVIVGEIDISRKETRRLLSVDKIYVHKKFVPPNSYYQNIDRFAYDYDIAIIRMKTPIQFSENVVPACLPTADFAKEVLMKQDSGIVSGFGRTQSIGYTSNILKVITVPYVDRHTCMLSSNFRITQNMFCAGYDTLPQDACQGDSGGPHITAYGDTHFVTGIISWGEGCARKGKYGVYTKVSNFIPWIKKIMSLK
B2: OsPA (prothrombin activator purified from Oxyuranus scutellatus venom) (protein)
chain 1: AQLREYRLAAQLEDWDYNPQPEELSRLSESDLTFKKIVYREYELDFKQEKPRDELSGLLGPTLRGEVGDSLIIYFKNFATQPVSIHPQSAVYNKWSEGSSYSDGTSDVERLDDAVPPGQSFKYVWNITAEIGPKKADPPCLTYAYYSHVNMVRDFNSGLIGALLICKEGSLNADGAQKFFNREYVLMFSVFDESKNWYRKPSLQYTINGFANGTLPDVQACAYDHISWHLIGMSSSPEIFSVHFNGQTLEQNHYKVSTINLVGGASVTANMSVSRTGKWLISSLVAKHLQAGMYGYLNIKDCGNPDTLTRKLSFRERRRIMKWEYFIAAEEITWDYAPEIPSSVDRRYKAQYLDNFSNFIGKKYKKAVFRQYEDSNFTKPTYAIWPKERGILGPVIKAKVRDTVTIVFKNLASRPYSIYVHGVSVSKDAEGAVYPSDPKENITHGKAVEPGQVYTYKWTVLDTDEPTVKDSECITKLYHSAVDMTRDIASGLIGPPLVCKRKALSIRGVQNKADVEQHAVFAVFDENKSWYLEDNIKKYCSNPSSVKKDDPKFYKSNVMYTLNGYASDRTEVWGFHQSEVVEWHLTSVGTVDEIVPVHLSGHTFLSKGKHQDILNLFPMSGESATVTMDNLGTWLLSSWGSCEMSNGMRLRFLDANYDDEDEGNEEEEEDDGDIFADIFNPPEVVIKKEEVPVNFVPDPESDALAKELGLFDDEDNPKQSRSEQTEDDEEQLMIASMLGLRSFKGSVAEEELKHTALALEEDAHASDPRIDSNSAHNSDDIAGRYLRTINRRNKRRYYIAAEEVLWDYSPIGKSQVRSLPAKTTFKKAIFRSYLDDTFQTPSTGGEYEKHLGILGPIIRAEVDDVIEVQFRNLASRPYSLHAHGLLYEKSSEGRSYDDNSPELFKKDDAIMPNGTYTYVWQVPPRSGPTDNTEKCKSWAYYSGVNPEKDIHSGLIGPILICQKGMIDKYNRTIDIREFVLFFMVFDEEKSWYFPKSDKSTCEEKLIGVQSRHTFPAINGIPYQLQGLMMYKDENVHWHLLNMGGPKDVHVVNFHGQTFTEEGREDNQLGVLPLLPGTFASIKMKPSKIGTWLLETEVGENQERGMQALFTVIDKDCKLPMGLASGIIQDSQISASGHVGYWEPKLARLNNTGMFNAWSIIKKEHEHPWIQIDLQRQVVITGIQTQGTVQLLKHSYTVEYFVTYSKDGQNWITFKGRHSKTQMHFEGNSDGTTVKENHIDPPIIARYIRLHPTKFYNTPTFRIELLGCEVEGCSVPLGMESGAIKDSEITASSYKKTWWSSWEPFLARLNLKGRTNAWQPKVNNKDQWLQIDLQHLTKITSIITQGATSMTTSMYVKTFSIHYTDDNSTWKPYLDVRTSMEKVFTGNINSDGHVKHFFNPPILSRFIRIIPKTWNQYIALRIELFGCEVF
chain 2: ANSLYEEFRSGNIERECIEERCSKEEAREVFEDDEKTETFWNVYVDGDQCSSNPCHYRGTCKDGIGSYTCTCLSGYEGKNCERVLYKSCRVDNGNCWHFCKPVQNDIQCSCAEGYLLGEDGHSCVAGGNFSCGRNIKTRNKREASLPDFVQSQNAILLKKSDNPSPDIRIVNGMDCKLGECPWQAVLVDEKEDAFCGGTILSPIYVLTAAHCINQTKMISVVVGEINISRKNPGRLLSVDKIYVHQKFVPPKKGYEFYEKFDLVSYDYDIAILQMKTPIQFSENVVPACLPTADFANQVLMKQDFGIVSGFGRIFEKGPQSKTLKVLKVPYVDRHTCMLSSESPITPTMFCAGYDTLPRDACQGDSGGPHITAYRDTHFITGIVSWGEGCAQTGKYGVYTKVSKFILWIKRIMRQKLPSTESSTGRL
B3: ecarin from Echis carinatus venom (protein)
chain: IILGSGNVNDYEVVYPQKVTALPKGAVQQPEQKYEDAMQYEFEVKGEPVVHLEKNKELFSEDYSETHYSSDDREITTNPSVEDHCYYHGRIQNDAESTASISACNGLKGHFKLRGETYFIEPLKIPDSEHAVYKYENIENEDEAPKMCGVTQDNWESDEPIKKTLGLIVPPHERKFEKKFIELVVVVDHSMVTKYNNDSTAIRTWIYELNTVNEIYLPFNIRVALVGLEFWCNGDLINVTSTADDTLHSFGEWRASDLLNRKRHDHAQLLTNVTLDHSTLGITFVYGCKSDRSVELILDYSNITFNMAYIIAHEMGHSLGMLHDTKFCTCGAKPCIMFGKESIPPPKEFSSCSYDQYNKYLLKYNPCILDPPLRKDIASPAVCGNEIWEEGEECDCGSPADCRNPCCDAATCKLKPGAECGNGECCDKCKIRKAGTECRPARDDCVAEHCTGQSAECPRNEFQRNGQPCLNNSGYCYNGDCPIMLNQCIALFSPSATVAQDSCFQRNLQGSYYGYCTKEIGYYGRFPCAPQDVKCGRLYCLDNSFKKNMRCKNDYSYADENKGIVEPGTKCEDGKVCINRKCVDVNTAY

Biological target: human prothrombin, P00734
[1] = scale: nmol thrombin/mL/min/µmol prothrombin/µmol activator

Protein	N-terminal sequencing of SDS-PAGE bands	percent of S-2238 hydrolysed by the thrombin formed	Thrombin generation rate [1]	fold more effective than carinactivase-1 (activation rate constants)	fold more effective than carinactivase-2 (activation rate constants)	fold more effective than ecarin (activation rate constants)	fold more effective than notecarin (activation rate constants)	Thrombin generation rate
B1	confirmed conversion of prothrombin to alpha-thrombin by PtPA and notecarin	then carinactivase-1 and lastly notecarin (<1%) being the least efficient	0.043	–	–	–	–	–
B2	–	–	44	more than 200 times then carinactivase-1	more than 20 times more effective than ecarin and carinactivase-2	more than 20 times more effective than ecarin and carinactivase-2	approximately 1000 times more effective than notecarin	–
B3	–	–	–	–	–	–	–	2.76
